Laboratory results: patent US6365366

Key:
Design in all cases: key to the marks not given beside the values
[1] = system: T1, GGSLMTSF peptide (SEQ ID NO:5)
T1 sequence: GGSLMTSF

[2] = system: T2, VDQGSMAASLVGT peptide (SEQ ID NO:9)
T2 sequence: VDQGSMAASLVGT

[3] = system: T3, AKDVDQGSVCTSFVGTLQY peptide (SEQ ID NO:11)
T3 sequence: AKDVDQGSVCTSFVGTLQY

[4] = system: T4, VDQGSIAASFVGT peptide (SEQ ID NO:10)
T4 sequence: VDQGSIAASFVGT

[5] = system: T5, AKDVDQGSLCTSLVGTLQY peptide (SEQ ID NO:12)
T5 sequence: AKDVDQGSLCTSLVGTLQY

[6] = system: T6, DQGSFCTSL peptide (SEQ ID NO:7)
T6 sequence: DQGSFCTSL

[7] = system: T7, VDQGSLAASFVGT peptide (SEQ ID NO:8)
T7 sequence: VDQGSLAASFVGT

[8] = system: T8, AKDVDQGSFCTSLVGTLQY peptide (SEQ ID NO:13)
T8 sequence: AKDVDQGSFCTSLVGTLQY

[9] = system: T9, GGSLCTSF peptide (SEQ ID NO:4)
T9 sequence: GGSLCTSF

[10] = system: T10, GGSFCTSL peptide (SEQ ID NO:6)
T10 sequence: GGSFCTSL

Measured: T2K substrate specificity

T2K kinase
+++: all assays above
